In experiment [1] the target is T1, biotin-labeled human TSLP-Fc (human, biotin-labeled).
T1 construct: also called TSLP-Fc protein; TSLP-Fc-biotin
The experiment in a line: cell-based blocking FACS: antibody pre-mixed with biotin human TSLP-Fc; blocked binding to cell-surface TSLPR/IL7Ra on HEK293T-TSLPR/IL7R/STAT5-Luc 5C5 cells. As to the method: The cells were prepared following the instruction of lipofectamine 3000 transfection reagent (Thermo Fisher), by transfecting HEK293T cells (ATCC® CRL-11268) with pCMV-T-P plasmids inserted with TSLPR coding sequence between EcoRI and Xba1 sites and pCMV3-SP plasmids inserted with IL7Ra coding sequence between HindIII and Xba1 sites as well as pGL4.52 [luc2P/STAT5RE/Hygro](Promega).
The cells were harvested from cell culture flasks, washed twice and re-suspended in phosphate buffered saline (PBS) containing 2% v/v Fetal Bovine Serum (FACS buffer). […] Cells were washed twice with FACS buffer, and then added and incubated with 100 μL/well R-Phycoerythrin Streptavidin (1:500 dilution in FACS buffer, Jackson Immunoresearch, Cat #016-110-084) for 40 minutes at 4° C. in dark. Cells were washed twice and re-suspended in FACS buffer. Fluorescence was measured using a Becton Dickinson FACS Canto II-HTS equipment. Data was analyzed using Graphpad Prism and IC₅₀ values were reported.

The target of experiment [2] is T2, human IL4Rα expressed on 293F-IL4Rα cell surface (human, UniProt P24394 26-825).
T2 construct: whole, on cells; also called human IL4Rα-expressing cells; cell surface IL4R
The experiment in a line: cell-based blocking FACS on 293F-IL4Rα cells; blocked ligand biotin human IL4. As to the method: (§1) Then, 1×10⁵ cells per well were incubated in 96 well-plates in 100 μL of serially diluted bispecific antibodies, the positive controls or negative control (starting at 100 nM with a 5-fold serial dilution) in FACS buffer for 40 minutes on ice. […] The plates were washed twice with FACS buffer, and then added and incubated for 40 minutes at 4° C. in dark with 100 μL/well R-Phycoerythrin Streptavidin (1:500 dilution in FACS buffer, Jackson Immunoresearch, Cat #016-110-084). Cells were washed twice and resuspended in FACS buffer. Fluorescence was measured using a Becton Dickinson FACS Canto II-HTS equipment. Data was analyzed using Graphpad Prism and IC₅₀ values were reported.

For experiment [3], the target named is T2, human IL4Rα expressed on 293F-IL4Rα …. Put plainly: flow cytometry on 293F-IL4Rα cells, PE anti-human IgG Fc. The procedure:
(§2) Cells were washed twice with FACS buffer, and added with 100 μL/well R-Phycoerythrin AffiniPure Goat Anti-Human IgG, Fey fragment specific (1:1000 dilution in FACS buffer, Jackson Immunoresearch, Cat #109-115-098). Following an incubation of 40 minutes at 4° C. in dark, cells were washed three times and resuspended in FACS buffer. Fluorescence was measured using a Becton Dickinson FACS Canto II-HTS equipment. Data was analyzed using Graphpad Prism and EC₅₀ values were reported.

For experiment [4], the target named is T3, recombinant human IL4Rα-his (human, UniProt P24394 26-231, limits assumed, biotin-labeled in the capture ELISA).
T3 construct: In-house made; not shown: His tag at the C-terminus
The experiment in a line: capture ELISA: antibody captured on anti-human IgG Fc F(ab')2, biotin human IL4Rα-his, SA-HRP. As to the method: (§3) Briefly, 96-well plates were coated with 2 μg/mL AffiniPure F(ab′)₂ Fragment Goat Anti-Human IgG, Fey fragment specific (Jackson Immuno Research, Cat #109-006-008) in PBS, 100 μL/well, overnight at 4° C. Plates were washed once with wash buffer (PBS+0.05% w/v Tween-20, PBST) and then blocked with 200 μL/well blocking buffer (5% w/v non-fatty milk in PBST) for 2 hours at 37° C. […] After a final wash, plates were incubated with 100 μL/well ELISA substrate TMB (Innoreagents, Cat #TMB-S-002). The reaction was stopped in 10 minutes at 25° C. with 50 μL/well 1M H₂SO₄, and the absorbance was read on a microplate reader using dual wavelength mode with 450 nm for TMB and 630 nm as the reference wavelength. Data was analyzed using Graphpad Prism and EC₅₀ values were reported.

Experiment [5] deals with T3, recombinant human IL4Rα-his. The experiment in a line: SPR Biacore T200; antibody captured on anti-human IgG CM5 chip, IL4Rα-his as analyte; 1:1 Langmuir fit. As to the method: The goat anti-human IgG (GE healthcare, Cat #BR100839, Human Antibody Capture Kit) was covalently linked to a CM5 chip (carboxy methyl dextran coated chip) via primary amines, using a standard amine coupling kit provided by Biacore (GE healthcare, Pittsburgh, PA, USA). Un-reacted moieties on the biosensor surface were blocked with ethanolamine. Then, purified bispecific antibodies of the disclosure at the concentration of 66.67 nM and the controls at 10 μg/mL, were flowed onto the chip at a flow rate of 10 μL/min. Then, serially diluted recombinant human IL4Rα-his (in house made, IL4Rα of SEQ ID NO: 33 with His tag at C-terminus) in HBS EP buffer (provided by Biacore) was flowed onto the chip at a flow rate of 30 μL/min. The association and dissociation curves were fit to a 1:1 Langmuir binding model using BIAcore evaluation software.

The target is the same in experiment [6]. The experiment in a line: capture ELISA: antibody captured on anti-human IgG Fc F(ab')2, biotin human IL4Rα-his, SA-HRP. As to the method:
as §3
The source holds these as a separate data set.

For experiment [7], the target named is T2, human IL4Rα expressed on 293F-IL4Rα …. The experiment in a line: cell-based blocking FACS on 293F-IL4Rα cells; blocked ligand biotin human IL4. The procedure: as §1
The source holds these as a separate data set.

Experiment [8] has the same target. The experiment in a line: flow cytometry on 293F-IL4Rα cells, PE anti-human IgG Fc. As to the method:
as §2
The source holds these as a separate data set.

The source of these data is US20260109758A1 (BIOSION, published 2026).

Read-outs that look alike come from different tables or passages of the source.

B1: Tezepelumab (antibody, human IgG2, lambda, V domains shown)
VH: QMQLVESGGGVVQPGRSLRLSCAASGFTFRTYGMHWVRQAPGKGLEWVAVIWYDGSNKHYADSVKGRFTITRDNSKNTLNLQMNSLRAEDTAVYYCARAPQWELVHEAFDIWGQGTMVTVSS
VL: SYVLTQPPSVSVAPGQTARITCGGNNLGSKSVHWYQQKPGQAPVLVVYDDSDRPSWIPERFSGSNSGNTATLTISRGEAGDEADYYCQVWDSSSDHVVFGGGTKLTVLG
notes: Positive control, prepared in-house; also called an anti-TSLP antibody
With B1, in experiment [1], the IC50 amounted to 1.23 nM.

B2: huC2C1A1A1-V15(IgG1) (antibody)
heavy: EVQLVESGGGLVQPGGSLRLSCAASGFTFSTYGMSWVRQAPGKGLVWVATINSNGGSTSYPDSVKGRFTISRDNAKNTLYLQMNSLRAEDTAVYYCARFFRFRNAMDYWGQGTLVTVSSASTKGPSVFPLAPSSKSTSGGTAALGCLVKDYFPEPVTVSWNSGALTSGVHTFPAVLQSSGLYSLSSVVTVPSSSLGTQTYICNVNHKPSNTKVDKKVEPKSCDKTHTCPPCPAPEAQGGPSVFLFPPKPKDTLYITREPEVTCVVVDVSHEDPEVKFNWYVDGVEVHNAKTKPREEQYNSTYRVVSVLTVLHQDWLNGKEYKCQVSNKALPAPIEKTISKAKGQPREPQVYTLPPSRDELTKNQVSLTCLVKGFYPSDIAVEWESNGQPENNYKTTPPVLDSDGSFFLYSKLTVDKSRWQQGNVFSCSVMHEALHNHYTQKSLSLSPG
light: DIQMTQSPSSLSASVGDRVTITCRTSENIYSYLAWYQQKPGKAPKFLVYNAKTLAEGVPSRFSGSGSGTDFTLTISSLQPEDFATYYCQHYYGPPTWTFGQGTKVEIKRTVAAPSVFIFPPSDEQLKSGTASVVCLLNNFYPREAKVQWKVDNALQSGNSQESVTEQDSKDSTYSLSSTLTLSKADYEKHKVYACEVTHQGLSSPVTKSFNRGEC
notes: Monospecific control, full-length IgG1; also called huC2C1A1A-V15(IgG1); anti-IL4R huC2C1A1A1-V15
On to B2, for which the 50% inhibitory concentration (IC50) in experiment [2] was determined as 0.159 nM; in experiment [7], 0.172 nM. The EC50 in experiment [3] is about 0.165 nM; in experiment [4], 0.0201 nM; in experiment [6], 0.0294 nM; in experiment [8], about 0.162 nM. Besides, the equilibrium dissociation constant (Kd) in experiment [5] was determined as 2.07 nM. Moreover, the koff in experiment [5] amounted to 0.000348 s⁻¹. In experiment [5], the on-rate constant (kon) was 168000 M⁻¹ s⁻¹.
